Assays:
Assay in all cases: BLI
Conditions in all cases: both partners purified
[1] = target: T1, SARS-CoV spike S2 subunit (SARS-CoV, strain  (entry …, UniProt P59594))
T1 construct: source: bought: Sino Biological

[2] = target: T2, SARS-CoV-2 spike S2 subunit (SARS-CoV-2, Wuhan-Hu-1 reference, UniProt P0DTC2)
T2 construct: source: bought: Sino Biological

[3] = target: MERS full-length spike protein (MERS-CoV, strain  (entry: …, UniProt K9N5Q8))
[4] = target: T3, OC-43 full-length spike protein (HCoV-OC43, UniProt P36334)
T3 construct: source: bought: Sino Biological

[5] = target: T4, HKU-1 full-length spike protein (HCoV-HKU1, UniProt Q0ZME7)
T4 construct: also called HKU1 SP; HCoV-HKU1 full-length SP; source: bought: Sino Biological

[6] = target: RatG13 full-length spike protein (Bat coronavirus RaTG13, UniProt A0ABF7PLN6)
[7] = target: SARS-CoV full-length spike protein (SARS-CoV, strain  (entry …, UniProt P59594))
MERS spike S2 subunit = target: T5, MERS spike S2 subunit (MERS-CoV, strain  (entry: …, UniProt K9N5Q8))
T5 construct: source: bought: Sino Biological

Measured: binding result

T4 sequence (Q0ZME7 13-1351): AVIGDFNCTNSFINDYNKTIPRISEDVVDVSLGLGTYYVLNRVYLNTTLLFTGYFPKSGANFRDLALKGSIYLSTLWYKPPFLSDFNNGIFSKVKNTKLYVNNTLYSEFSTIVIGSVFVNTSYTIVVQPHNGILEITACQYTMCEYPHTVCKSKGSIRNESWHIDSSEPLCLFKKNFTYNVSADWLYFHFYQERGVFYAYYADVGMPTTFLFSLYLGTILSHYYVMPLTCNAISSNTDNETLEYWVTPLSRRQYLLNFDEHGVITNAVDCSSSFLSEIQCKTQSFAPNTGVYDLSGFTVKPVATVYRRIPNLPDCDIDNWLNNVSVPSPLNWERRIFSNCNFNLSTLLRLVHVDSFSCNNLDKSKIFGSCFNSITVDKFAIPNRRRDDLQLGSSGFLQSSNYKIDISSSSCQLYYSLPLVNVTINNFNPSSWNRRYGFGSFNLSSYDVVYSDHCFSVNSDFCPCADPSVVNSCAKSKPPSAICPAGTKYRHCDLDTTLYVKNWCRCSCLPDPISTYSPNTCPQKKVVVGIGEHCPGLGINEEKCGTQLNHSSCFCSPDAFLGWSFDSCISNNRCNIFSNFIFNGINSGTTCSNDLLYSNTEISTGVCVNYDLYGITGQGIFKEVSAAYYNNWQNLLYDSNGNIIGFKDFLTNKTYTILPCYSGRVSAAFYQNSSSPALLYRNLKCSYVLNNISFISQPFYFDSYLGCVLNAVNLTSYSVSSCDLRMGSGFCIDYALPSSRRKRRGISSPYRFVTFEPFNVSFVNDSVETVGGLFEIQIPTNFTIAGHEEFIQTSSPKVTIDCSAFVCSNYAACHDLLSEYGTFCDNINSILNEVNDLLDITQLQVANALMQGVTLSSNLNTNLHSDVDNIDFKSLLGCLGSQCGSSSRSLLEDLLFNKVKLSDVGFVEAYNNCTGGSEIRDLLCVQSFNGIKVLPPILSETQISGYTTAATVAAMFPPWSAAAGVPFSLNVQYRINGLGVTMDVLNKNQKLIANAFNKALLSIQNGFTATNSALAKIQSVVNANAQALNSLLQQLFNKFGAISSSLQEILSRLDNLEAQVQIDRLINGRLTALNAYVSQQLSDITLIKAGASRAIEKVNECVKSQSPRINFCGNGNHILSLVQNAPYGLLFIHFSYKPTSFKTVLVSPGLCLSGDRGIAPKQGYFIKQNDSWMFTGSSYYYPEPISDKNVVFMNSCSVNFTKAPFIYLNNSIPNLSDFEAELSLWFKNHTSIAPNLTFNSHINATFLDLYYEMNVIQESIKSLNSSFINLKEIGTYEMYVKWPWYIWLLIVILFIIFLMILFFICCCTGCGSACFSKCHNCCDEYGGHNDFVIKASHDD
MERS full-length spike protein (MERS-CoV, strain , sequence (K9N5Q8 18-1353): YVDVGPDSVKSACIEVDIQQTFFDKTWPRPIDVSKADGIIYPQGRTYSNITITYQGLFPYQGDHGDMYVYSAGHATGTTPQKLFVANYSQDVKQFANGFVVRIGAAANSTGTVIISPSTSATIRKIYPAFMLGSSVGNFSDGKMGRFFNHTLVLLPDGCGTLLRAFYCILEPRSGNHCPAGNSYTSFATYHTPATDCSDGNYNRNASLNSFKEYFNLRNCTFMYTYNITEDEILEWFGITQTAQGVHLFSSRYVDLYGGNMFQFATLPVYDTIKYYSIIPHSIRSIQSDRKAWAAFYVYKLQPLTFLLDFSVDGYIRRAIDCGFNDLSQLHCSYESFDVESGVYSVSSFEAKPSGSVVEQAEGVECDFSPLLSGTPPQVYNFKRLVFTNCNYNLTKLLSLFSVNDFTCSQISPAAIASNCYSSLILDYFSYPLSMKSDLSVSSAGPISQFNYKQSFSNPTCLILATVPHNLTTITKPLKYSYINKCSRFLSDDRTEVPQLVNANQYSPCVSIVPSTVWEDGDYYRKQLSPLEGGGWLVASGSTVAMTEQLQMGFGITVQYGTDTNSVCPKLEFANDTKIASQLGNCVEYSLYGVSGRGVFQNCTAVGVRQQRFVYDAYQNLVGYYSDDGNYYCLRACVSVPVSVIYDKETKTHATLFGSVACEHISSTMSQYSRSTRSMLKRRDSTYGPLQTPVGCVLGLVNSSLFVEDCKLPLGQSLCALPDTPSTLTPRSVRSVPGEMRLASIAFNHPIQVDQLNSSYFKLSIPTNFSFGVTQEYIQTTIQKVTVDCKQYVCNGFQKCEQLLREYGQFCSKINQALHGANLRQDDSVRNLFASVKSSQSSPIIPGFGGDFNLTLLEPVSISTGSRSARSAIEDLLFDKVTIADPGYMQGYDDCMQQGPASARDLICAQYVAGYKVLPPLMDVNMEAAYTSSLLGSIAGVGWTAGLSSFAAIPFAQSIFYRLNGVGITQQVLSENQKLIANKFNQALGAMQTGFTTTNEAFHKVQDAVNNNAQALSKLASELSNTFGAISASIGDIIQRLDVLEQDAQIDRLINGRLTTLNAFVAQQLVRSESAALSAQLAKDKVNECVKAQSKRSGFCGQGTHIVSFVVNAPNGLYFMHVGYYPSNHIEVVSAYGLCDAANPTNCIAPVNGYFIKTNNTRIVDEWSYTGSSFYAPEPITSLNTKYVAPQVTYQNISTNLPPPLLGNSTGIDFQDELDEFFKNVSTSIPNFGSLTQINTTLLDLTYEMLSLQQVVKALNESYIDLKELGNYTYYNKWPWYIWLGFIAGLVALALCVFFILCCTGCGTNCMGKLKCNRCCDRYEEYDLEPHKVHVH
T3 sequence (P36334 14-1353): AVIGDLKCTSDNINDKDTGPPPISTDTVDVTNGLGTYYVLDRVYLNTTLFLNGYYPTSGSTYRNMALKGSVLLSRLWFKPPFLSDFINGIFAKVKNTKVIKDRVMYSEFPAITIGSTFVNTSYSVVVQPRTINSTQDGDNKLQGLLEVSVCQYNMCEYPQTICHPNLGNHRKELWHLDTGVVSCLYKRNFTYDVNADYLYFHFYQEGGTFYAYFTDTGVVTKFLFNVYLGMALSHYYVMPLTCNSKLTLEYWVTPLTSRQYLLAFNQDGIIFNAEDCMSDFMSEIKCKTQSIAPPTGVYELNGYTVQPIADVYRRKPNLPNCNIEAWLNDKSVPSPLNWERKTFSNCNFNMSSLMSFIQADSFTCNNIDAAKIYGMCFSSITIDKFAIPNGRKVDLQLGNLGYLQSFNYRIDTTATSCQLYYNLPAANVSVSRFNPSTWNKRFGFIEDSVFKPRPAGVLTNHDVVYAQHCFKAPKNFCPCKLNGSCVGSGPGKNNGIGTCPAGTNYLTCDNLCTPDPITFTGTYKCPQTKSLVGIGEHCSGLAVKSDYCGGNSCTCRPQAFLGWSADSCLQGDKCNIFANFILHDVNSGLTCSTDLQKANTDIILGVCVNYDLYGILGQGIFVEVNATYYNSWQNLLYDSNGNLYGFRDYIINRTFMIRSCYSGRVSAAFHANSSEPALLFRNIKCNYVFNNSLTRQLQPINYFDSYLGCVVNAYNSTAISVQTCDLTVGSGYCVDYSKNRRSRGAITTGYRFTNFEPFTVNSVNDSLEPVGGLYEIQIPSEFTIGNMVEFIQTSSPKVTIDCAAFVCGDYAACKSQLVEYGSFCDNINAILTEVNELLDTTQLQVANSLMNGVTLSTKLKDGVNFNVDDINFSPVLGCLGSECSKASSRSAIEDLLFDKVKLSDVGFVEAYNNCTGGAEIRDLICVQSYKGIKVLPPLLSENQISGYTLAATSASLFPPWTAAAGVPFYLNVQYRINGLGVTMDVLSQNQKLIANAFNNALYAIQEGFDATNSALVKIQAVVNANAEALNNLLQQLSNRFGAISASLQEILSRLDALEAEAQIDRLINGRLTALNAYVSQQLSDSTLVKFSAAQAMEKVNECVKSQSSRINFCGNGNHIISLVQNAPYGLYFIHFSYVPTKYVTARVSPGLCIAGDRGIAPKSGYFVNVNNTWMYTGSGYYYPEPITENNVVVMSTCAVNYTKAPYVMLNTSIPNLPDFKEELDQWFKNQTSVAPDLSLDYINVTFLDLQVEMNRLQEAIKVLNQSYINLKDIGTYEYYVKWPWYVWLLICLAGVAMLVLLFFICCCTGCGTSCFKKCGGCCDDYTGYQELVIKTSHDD

B1: mAb 1871 IgG1 (wild-type human IgG1 Fc) (antibody, V domains shown)
VH: EVQLVESGGGLVKPGGSLRLSCVASGFSFSIYSMNWVRQAPGKGLEWVSYISSSSSYKYYADSVKGRFSVSRDNAKNSLYLQLNGLRAEDTAVYYCARDGYCPKGVCTYYGMDVWGQGTTVTVSA
VL: EIVMTQSPATLSVSPGERVTLSCRASQSVRSRLAWFQQKPGQAPRLLIYDASIRATGIPARFSGSGSGTEFTLIISSLQSEDFAVYYCQQYDNWPPAYTFGQGTKLEIK
notes: also called ADPT01871; source: HEK-293F, transiently transfected, purified (protein A, SEC Superdex200)
binds: all assays above
